Results from publication PMC3910272, “Assay Platform for Clinically Relevant Metallo-β-lactamases” (Journal of Medicinal Chemistry, 2013).
Marks after values point to notes of the source that are not given here.

Columns and labels:
[1] = Autohydrolysis and storage stability of fluorogenic substrates; type: physicochemical; conditions: for period of use when stored as solids: solids at −20 °C; for time solutions could be used: solutions stored on ice
[2] = tested on: O=C(Cc1cccs1)N[C@@H]1C(=O)N2C(C(=O)O)=C(/C=C/c3ccc([N+](=O)[O-])cc3[N+](=O)[O-])CS[C@H]12; test: purified protein, by the assay type; conditions: substrate hydrolysis
[3] = tested on: O=C(Cc1cccs1)N[C@@H]1C(=O)N2C(C(=O)O)=C(CSc3ccc([N+](=O)[O-])c(C(=O)O)c3)CS[C@H]12; test: purified protein, by the assay type; conditions: substrate hydrolysis
[4] = tested on: C[C@@H](O)[C@H]1C(=O)N2C(C(=O)O)=C(SCCN=CN)C[C@H]12; test: purified protein, by the assay type; conditions: substrate hydrolysis
[5] = tested on: [H][C@@]12[C@H](NC(=O)Cc3ccccc3)C(=O)N1C(C(=O)O)=C(COc1ccc3ccc(=O)oc3c1)CS2(=O)=O; test: purified protein, by the assay type; conditions: substrate hydrolysis
[6] = tested on: O=C(Cc1ccccc1)N[C@@H]1C(=O)N2C(C(=O)O)=C(COc3ccc4ccc(=O)oc4c3)C[S+]([O-])[C@H]12; test: purified protein, by the assay type; conditions: substrate hydrolysis
[7] = molecular target: T1, SPM-1 (Pseudomonas aeruginosa, UniProt Q8G9Q0); test: biochemical
Text: (§1) Taking into account the aforementioned requirements,
(§2) absorbance from Greiner Bio-One were used.
(§3) Determination of the steady state kinetic
(§4) concentration using the same software.

[8] = molecular target: T2, NDM-1 (Klebsiella pneumoniae, UniProt C7C422); type: biochemical; set-up: His-tag (3C protease cleavable) (N, cleaved yes); made in house; host or cells: E. coli BL21(DE3) pLysS; conditions: substrate hydrolysis
Text: as §1, §2, §3, §4

[9] = tested on: O=C(Cc1ccccc1)N[C@@H]1C(=O)N2C(C(=O)O)=C(COc3ccc4ccc(=O)oc4c3)CS[C@H]12; test: purified protein, by the assay type; conditions: other: NDM-1; substrate hydrolysis
[10] = molecular target: T1, SPM-1; test: SPM-1 inhibition (residual activity, IC50), FC4 as reporter substrate; type: biochemical
Text: To achieve clinical utility, MBL inhibitors may need to act on more than one MBL subfamily. This is potentially challenging because of the generally low sequence similarity between MBLs of different subfamilies (B1, B2, B3). […] This set of compounds was selected as a result of their previously reported inhibition of metal-binding oxygenases.[51] […] In contrast, the compounds derivatized with a Trp, Leu, Asp, or Glu residue inhibited SPM-1, with the tryptophan-functionalized chloroisoquinolinols (S)-7d and (R)-7d giving the most promising results (3% and 8% residual activity (RA) at 200 μM, respectively).
as §1, §2, §3, §4
(§5) Additional tests verified

[11] = molecular target: IMP-1 (Serratia marcescens, UniProt P52699); test: biochemical
[12] = molecular target: T3, Bc II (Bacillus cereus, UniProt P04190); test: Bc II inhibition IC50, FC4 as reporter substrate; type: biochemical
T3 construct: made in house; host or cells: E. coli BL21(DE3) pLysS
Text: as §1, §2, §3, §4, §5

[13] = molecular target: T2, NDM-1; test: biochemical
[14] = molecular target: VIM-2 (Escherichia coli, UniProt Q5U7L7); test: biochemical

T1 sequence (Q8G9Q0 entry or part of it): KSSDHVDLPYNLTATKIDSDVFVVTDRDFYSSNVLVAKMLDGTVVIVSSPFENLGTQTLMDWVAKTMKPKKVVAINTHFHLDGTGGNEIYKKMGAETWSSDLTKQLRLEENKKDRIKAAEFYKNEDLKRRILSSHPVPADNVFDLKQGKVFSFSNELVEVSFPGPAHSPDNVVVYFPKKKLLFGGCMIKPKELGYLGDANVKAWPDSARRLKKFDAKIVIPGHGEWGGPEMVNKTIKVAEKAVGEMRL
T2 sequence (C7C422 29-270 limits assumed): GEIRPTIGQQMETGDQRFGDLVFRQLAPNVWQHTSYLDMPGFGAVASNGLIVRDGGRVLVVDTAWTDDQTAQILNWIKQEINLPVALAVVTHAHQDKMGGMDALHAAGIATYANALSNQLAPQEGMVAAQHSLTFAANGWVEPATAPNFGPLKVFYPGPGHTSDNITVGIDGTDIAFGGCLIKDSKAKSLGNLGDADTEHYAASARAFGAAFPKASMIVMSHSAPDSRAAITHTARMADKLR
T3 sequence (P04190 31-257): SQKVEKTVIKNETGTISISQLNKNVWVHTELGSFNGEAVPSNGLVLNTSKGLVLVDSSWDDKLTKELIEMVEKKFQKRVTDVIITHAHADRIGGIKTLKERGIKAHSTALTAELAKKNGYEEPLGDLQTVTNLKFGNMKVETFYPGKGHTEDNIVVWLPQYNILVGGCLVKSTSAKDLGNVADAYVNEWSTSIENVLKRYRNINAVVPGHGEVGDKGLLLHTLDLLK
IMP-1, sequence (P52699 19-246 limits assumed): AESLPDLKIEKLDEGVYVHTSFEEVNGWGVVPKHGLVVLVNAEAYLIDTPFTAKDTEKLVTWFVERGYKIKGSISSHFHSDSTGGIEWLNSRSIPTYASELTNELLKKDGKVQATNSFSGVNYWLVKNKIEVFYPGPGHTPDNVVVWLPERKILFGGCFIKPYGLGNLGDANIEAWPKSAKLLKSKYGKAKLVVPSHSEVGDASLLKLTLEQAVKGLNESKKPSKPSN

Q: Which autohydrolysis in buffer ([1]; buffer, room temperature, after 3 h) does the source give for `O=C(Cc1ccccc1)N[C@@H]1C(=O)N2C(C(=O)O)=C(COc3ccc4ccc(=O)oc4c3)CS[C@H]12` [FC3] here?
A: substantial hydrolysis

Q: What does the source list for `O=C(Cc1ccccc1)N[C@@H]1C(=O)N2C(C(=O)O)=C(COc3ccc4ccc(=O)oc4c3)CS(=O)(=O)[C@H]12` [FC5, (6R,7R)-8-Oxo-3-(((2-oxo-2H-chromen-7-yl)oxy)methyl)-7-(2-phenylacetamido)-5-thia-1-azabicyclo[4.2.0]oct-2-ene-2-carboxylic Acid 5,5-Dioxide]?
A: time stable in buffer (autohydrolysis study) ([1]; buffer, room temperature): at least 8 h; period of use when stored as solids [1]: months; time solutions could be used [1]: 1 to 2 days

Q: Which Km ([2]; other: SPM-1) does the source give for SPM-1 (Pseudomonas aeruginosa) here?
A: 16.0 ± 3.7 ^c μM

Q: And the kcat ([2]; other: SPM-1)?
A: 0.7 s⁻¹

Q: And the kcat/Km ([2]; other: SPM-1)?
A: 40000 M⁻¹ s⁻¹

Q: What about the kcat ([3]; other: SPM-1) of the same compound?
A: 6.1 s⁻¹

Q: What about the kcat/Km ([3]; other: SPM-1) of the same compound?
A: 200000 M⁻¹ s⁻¹

Q: And the kcat/Km ([4]; other: SPM-1)?
A: 100000 M⁻¹ s⁻¹

Q: What about the Km ([5]; other: SPM-1) of the same compound?
A: 2.7 ± 0.2 µM

Q: What about the kcat/Km ([5]; other: SPM-1) of the same compound?
A: 1.03e+07 M⁻¹ s⁻¹

Q: And the Km ([6]; other: SPM-1)?
A: 2.5 ± 0.2 µM

Q: And the kcat ([6]; other: SPM-1)?
A: 8.7 s⁻¹

Q: What about the kcat/Km ([6]; other: SPM-1) of the same compound?
A: 3.5e+06 M⁻¹ s⁻¹

Q: For BcII (Bacillus cereus), which Km ([2]; other: BcII) is on record?
A: 8.1 ± 1.0 µM

Q: And the kcat ([2]; other: BcII)?
A: 14.9 s⁻¹

Q: And the kcat/Km ([2]; other: BcII)?
A: 1.8e+06 M⁻¹ s⁻¹

Q: And the kcat ([3]; other: BcII)?
A: 8.9 s⁻¹

Q: What about the kcat/Km ([3]; other: BcII) of the same compound?
A: 60000 M⁻¹ s⁻¹

Q: What about the kcat/Km ([4]; other: BcII) of the same compound?
A: 400000 M⁻¹ s⁻¹

Q: What about the kcat/Km ([5]; other: BcII) of the same compound?
A: 3.7e+06 M⁻¹ s⁻¹

Q: What about the kcat/Km ([6]; other: BcII) of the same compound?
A: 700000 M⁻¹ s⁻¹

Q: Which Km ([2]; other: VIM-2) does the source give for VIM-2 (Escherichia coli) here?
A: 7.2 ± 0.6 µM

Q: And the kcat ([2]; other: VIM-2)?
A: 226 s⁻¹

Q: And the kcat/Km ([2]; other: VIM-2)?
A: 3.12e+07 M⁻¹ s⁻¹

Q: And the kcat/Km ([3]; other: VIM-2)?
A: 1.8e+06 M⁻¹ s⁻¹

Q: And the kcat/Km ([4]; other: VIM-2)?
A: 1.1e+06 M⁻¹ s⁻¹

Q: What about the kcat/Km ([5]; other: VIM-2) of the same compound?
A: 1.91e+07 M⁻¹ s⁻¹

Q: What about the Km ([6]; other: VIM-2) of the same compound?
A: 6.3 ± 0.4 µM

Q: And the kcat/Km ([6]; other: VIM-2)?
A: 2e+07 M⁻¹ s⁻¹

Q: With IMP-1 (Serratia marcescens) as the compound, how does the Km ([2]; other: IMP-1) read?
A: 55.7 ± 4.8 µM

Q: And the kcat ([2]; other: IMP-1)?
A: 2790 s⁻¹

Q: And the kcat/Km ([2]; other: IMP-1)?
A: 5.02e+07 M⁻¹ s⁻¹

Q: And the kcat/Km ([3]; other: IMP-1)?
A: 2.53e+07 M⁻¹ s⁻¹

Q: And the kcat ([4]; other: IMP-1)?
A: 1200 s⁻¹

Q: And the kcat/Km ([4]; other: IMP-1)?
A: 2.81e+07 M⁻¹ s⁻¹

Q: And the kcat/Km ([5]; other: IMP-1)?
A: 5.17e+08 M⁻¹ s⁻¹

Q: What about the kcat/Km ([6]; other: IMP-1) of the same compound?
A: 8.07e+08 M⁻¹ s⁻¹

Q: For `O=C(Cc1cccs1)N[C@@H]1C(=O)N2C(C(=O)O)=C(/C=C/c3ccc([N+](=O)[O-])cc3[N+](=O)[O-])CS[C@H]12` [nitrocefin], which Ki ([7]; apparent Ki value for substrate/product inhibition, table footnote) is on record?
A: 36.6 µM

Q: And the Ki ([7]; concentration at which SPM-1 is inhibited by nitrocefin/nitrocefin-derived species, substrate or product inhibition)?
A: 36 µM

Q: And the Km [8]?
A: 8.8 ± 1.1 µM

Q: And the kcat [8]?
A: 25.3 s^–1

Q: Which kcat/Km ([4]; other: NDM-1) does the source give for NDM-1 (Klebsiella pneumoniae) here?
A: 3.6e+06 M⁻¹ s⁻¹

Q: And the Km ([5]; other: NDM-1)?
A: 2.4 ± 0.2 µM

Q: And the kcat/Km ([5]; other: NDM-1)?
A: 1.24e+08 M⁻¹ s⁻¹

Q: And the Km ([6]; other: NDM-1)?
A: 4.0 ± 0.8 µM

Q: What about the kcat/Km ([6]; other: NDM-1) of the same compound?
A: 3.2e+07 M⁻¹ s⁻¹

Q: What about the kcat/Km [9] of the same compound?
A: 5.8e+06 M⁻¹ s⁻¹

Q: Which “RA 1 mM (residual activity on SPM-1)” value ([10]; compound at 1 mM, FC4 reporter substrate, 10 min preincubation) does the source give for `O=C(O)c1ccc(O)cc1O` [β-Resorcylic acid, reference compound] here?
A: 76%

Q: With `O=C(N[C@@H](Cc1c[nH]c2ccccc12)C(=O)O)c1nc(Cl)c2ccccc2c1O` [(S)-7d] as the compound, how does the IC50 [11] read?
A: 75.6 ± 1.5 µM

Q: And the IC50 [12]?
A: 61.3 ± 1.3 µM

Q: And the IC50 [13]?
A: 61.4 ± 1.3 µM

Q: And the IC50 [14]?
A: 54.7 ± 1.4 µM

Q: What about the IC50 [10] of the same compound?
A: 23.2 ± 1.1 µM

Q: With `O=C(N[C@H](Cc1c[nH]c2ccccc12)C(=O)O)c1nc(Cl)c2ccccc2c1O` [(R)-7d] as the compound, how does the IC50 [11] read?
A: 74.1 ± 1.6 µM

Q: And the IC50 [12]?
A: 132.4 ± 1.3 µM

Q: What about the IC50 [13] of the same compound?
A: 47.1 ± 1.1 µM

Q: What about the IC50 [14] of the same compound?
A: 55.3 ± 1.3 µM

Q: And the IC50 [10]?
A: 46.6 ± 1.1 µM

Q: With `O=C(Cc1ccccc1)N[C@@H]1C(=O)N2C(C(=O)O)=C(COc3ccc4ccc(=O)oc4c3)C[S+]([O-])[C@H]12` (stereo partly drawn) [FC4, (6R,7R)-8-Oxo-3-(((2-oxo-2H-chromen-7-yl)oxy)methyl)-7-(2-phenylacetamido)-5-thia-1-azabicyclo[4.2.0]oct-2-ene-2-carboxylic Acid 5-Oxide] as the compound, how does the “time stable in buffer (autohydrolysis study)” value ([1]; buffer, room temperature) read?
A: at least 8 h

Q: And the “period of use when stored as solids” value [1]?
A: months

Q: And the “time solutions could be used” value [1]?
A: 1 to 2 days
